Test results as given in paper PMC11922060.

Target: Sumo-tagged Drosophila Spd-2 C-terminal half (Spd-2 697-1146) P817D, phosphorylated in vitro by human PLK1 (UniProt Q9VV79)
Assay: SEC-MALS
Conditions: 50 µM protein, phosphorylated in vitro with recombinant human PLK1 kinase; parent: est. 0.50; read off a plot

UniProt Q9VV79, sequence (Q9VV79 entry or part of it P817D | P817D): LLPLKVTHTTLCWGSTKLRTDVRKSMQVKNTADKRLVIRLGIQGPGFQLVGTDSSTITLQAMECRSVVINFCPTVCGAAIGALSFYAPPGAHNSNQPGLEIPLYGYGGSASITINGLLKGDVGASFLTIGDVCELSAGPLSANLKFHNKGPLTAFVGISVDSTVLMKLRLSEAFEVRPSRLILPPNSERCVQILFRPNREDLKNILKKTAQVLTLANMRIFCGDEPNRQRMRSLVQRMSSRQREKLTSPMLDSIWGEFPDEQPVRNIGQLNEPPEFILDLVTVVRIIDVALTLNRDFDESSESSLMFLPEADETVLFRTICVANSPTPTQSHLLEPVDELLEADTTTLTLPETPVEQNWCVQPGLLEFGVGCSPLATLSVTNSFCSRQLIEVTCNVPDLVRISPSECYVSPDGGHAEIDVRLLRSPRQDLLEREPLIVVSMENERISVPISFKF

response: 0.14
Substance: Sumo-tagged Drosophila Spd-2 C-terminal half (Spd-2 697-1146), wild type, phosphorylated in vitro by human PLK1 (from UniProt Q9VV79) P817D
